Biological target: purified catalytic subunit of cAMP-dependent protein kinase (PKA)
Assay: kinetic analysis of PKA phosphorylation of ARPP-21 at 0-15 uM phospho-Thr75 DARPP-32; Lineweaver-Burk and secondary plot, competitive inhibition

Ki: 2700 nM
B1: phospho-Thr75 DARPP-32 (other)
chain: MDPKDRKKIQFSVPAPPSQLDPRQVEMIRRRRPTPAMLFRLSEHSSPEEEASPHQRASGEGHHLKSKRPNPCAYTPPSLKAVQRIAESHLQSISNLNENQASEEEDELGELRELGYPREEDEEEEEDDEEEEEEEDSQAEVLKVIRQSAGQKTTRGLGLEGPWERPPPLDESERDGGSEDQVEDPALSEPGEEPQRPSPSEPGR

From patent US6989362 (ROCKEFELLER UNIVERSITY, dated 2006)
